Experimental findings from patent US20250076311A1 (Chugai, published 2025) are described below.

Where a chain is given by its changes, count along the chain named. Names may count otherwise.

The target in experiment [1] is T1, human FcγRIIaR extracellular domain, His-tagged (human, UniProt P12318 34-217).
T1 construct: also called human FcγRIIa (type R); FcgRIIaR; not shown: C-terminal His-tag
T1 chain: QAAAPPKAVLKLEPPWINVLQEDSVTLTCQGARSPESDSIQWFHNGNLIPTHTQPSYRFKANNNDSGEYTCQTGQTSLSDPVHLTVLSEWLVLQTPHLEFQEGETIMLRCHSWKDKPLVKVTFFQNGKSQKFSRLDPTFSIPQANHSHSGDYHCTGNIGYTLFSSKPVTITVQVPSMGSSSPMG
As to the kind of experiment: SPR Biacore, KD(SG1)/KD(variant). The procedure:
(§1) The kinetic analysis of interactions between these antibodies and FcγR was carried out using BIACORE® T200 or BIACORE® 4000 (GE Healthcare). HBS-EP+ (GE Healthcare) was used as the running buffer, and the measurement temperature was set to 25° C. […] After the measurement, the antibody captured on the chip was washed off by allowing reaction with 10 mM glycine-HCl, pH1.5 and 25 mM NaOH so that the chip was regenerated and used repeatedly. The sensorgrams obtained as measurement results were analyzed by the 1:1 Langmuir binding model using the BIACORE® Evaluation Software to calculate the binding rate constant ka (L/mol/s) and dissociation rate constant kd (1/s), and the dissociation constant KD (mol/L) was calculated from these values. […] Regarding such interactions, KD values were calculated using the following 1:1 binding model described in BIACORE® T100 Software Handbook BR1006-48 Edition AE.
A general note: SPR reads the build-up and loss of mass on a sensor chip optically.

For experiment [2], the target named is T2, human FcγRIIb extracellular domain, His-tagged (human, UniProt P31994 43-217).
T2 construct: also called FcgRIIb (human); not shown: C-terminal His-tag
T2 sequence: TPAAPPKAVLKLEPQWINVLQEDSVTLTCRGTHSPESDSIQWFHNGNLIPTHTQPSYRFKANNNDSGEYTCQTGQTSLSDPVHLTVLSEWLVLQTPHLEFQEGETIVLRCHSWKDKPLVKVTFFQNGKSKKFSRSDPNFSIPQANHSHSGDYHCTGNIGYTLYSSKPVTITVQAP
As to the kind of experiment: SPR Biacore, KD(SG1)/KD(variant). The procedure: as §1

For experiment [3], the target named is T3, cynomolgus monkey FcγRIIIaS extracellular domain, His-tagged (cynomolgus monkey, UniProt A3RFZ7 21-206 (rhesus entry)).
T3 construct: also called cyno FcγRIIIaS; cynoFcγRIIIaS; not shown: His-tag added to the C-terminus
Kind of experiment: SPR (BIACORE), antibody captured on chip, FcγR as analyte, 25 C; KD of M103205H795-SG1 divided by KD of the variant. The method, then: as §1

For experiment [4], the target named is T4, human FcγRIIb extracellular domain, His-tagged (human, UniProt P31994 43-217).
T4 construct: also called FcgRIIb (human)
T4 sequence: T2 sequence
Kind of experiment: SPR, 25C, antibody captured, FcγR as analyte. The method, then: as §1

For experiment [5], the target named is T5, cynomolgus monkey FcγRIIa1 extracellular domain with C-terminal His-tag (cynomolgus monkey).
T5 construct: also called cyno FcgRIIa1; cynoFcγRIIa1; not shown: His-tag added to the C-terminus
T5 chain: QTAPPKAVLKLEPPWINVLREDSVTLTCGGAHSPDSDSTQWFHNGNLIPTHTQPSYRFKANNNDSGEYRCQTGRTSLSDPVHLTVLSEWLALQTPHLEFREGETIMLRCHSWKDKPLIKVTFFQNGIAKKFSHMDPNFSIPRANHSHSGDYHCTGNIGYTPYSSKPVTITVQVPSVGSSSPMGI
Kind of experiment: SPR (BIACORE), antibody captured, FcgR analyte.

In experiment [6] the target is T6, cynomolgus monkey FcγRIIIaS extracellular domain with C-terminal His-tag (cynomolgus monkey, UniProt A3RFZ7 21-206 (rhesus entry)).
T6 construct: also called cyno FcgRIIIaS; cynoFcγRIIIaS; not shown: His-tag added to the C-terminus
T6 sequence (A3RFZ7 21-206): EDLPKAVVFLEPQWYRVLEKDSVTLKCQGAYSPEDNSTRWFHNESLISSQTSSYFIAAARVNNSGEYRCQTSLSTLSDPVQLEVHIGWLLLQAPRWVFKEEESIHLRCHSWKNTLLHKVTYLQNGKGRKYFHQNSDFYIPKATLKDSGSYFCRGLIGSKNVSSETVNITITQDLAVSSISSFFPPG
As to the kind of experiment: SPR (BIACORE), antibody captured, FcgR analyte.

The target in experiment [7] is T7, cynomolgus monkey FcγRIIa2 extracellular domain with C-terminal His-tag (cynomolgus monkey).
T7 construct: also called cyno FcgRIIa2; cynoFcγRIIa2; not shown: His-tag added to the C-terminus
T7 chain: T5 chain with P95T, T121A, I127K, A128S, K130N, D135N, R142Q
Kind of experiment: SPR (BIACORE), antibody captured, FcgR analyte.

Experiment [8] concerns the target T8, human FcγRIIaR extracellular domain with C-terminal His-tag (human, UniProt P12318 34-217).
T8 construct: also called human FcgRIIaR; FcγRIIa type R; not shown: His-tag added to the C-terminus
T8 chain: T1 chain
Kind of experiment: SPR (BIACORE), antibody captured, FcgR analyte.

For experiment [9], the target named is T9, cynomolgus monkey FcγRIIb extracellular domain with C-terminal His-tag (cynomolgus monkey).
T9 construct: also called cyno FcgRIIb; cynoFcγRIIb; not shown: His-tag added to the C-terminus
T9 chain: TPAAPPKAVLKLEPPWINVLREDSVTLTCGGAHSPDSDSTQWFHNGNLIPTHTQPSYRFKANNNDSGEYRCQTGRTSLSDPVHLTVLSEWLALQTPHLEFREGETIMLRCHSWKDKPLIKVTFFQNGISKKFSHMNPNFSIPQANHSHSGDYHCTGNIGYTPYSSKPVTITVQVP
As to the kind of experiment: SPR (BIACORE), antibody captured, FcgR analyte.

Experiment [10] addresses T10, human FcγRIIb extracellular domain with C-terminal His-tag (human, UniProt P31994 43-217).
T10 construct: also called human FcgRIIb; not shown: His-tag added to the C-terminus
T10 sequence: T2 sequence
As to the kind of experiment: SPR (BIACORE), antibody captured, FcgR analyte.

In experiment [11] the target is T11, human FcγRIIIaV extracellular domain with C-terminal His-tag (human, UniProt P08637 17-208).
T11 construct: also called human FcgRIIIaV; not shown: His-tag added to the C-terminus
T11 sequence (P08637 17-208 F176V): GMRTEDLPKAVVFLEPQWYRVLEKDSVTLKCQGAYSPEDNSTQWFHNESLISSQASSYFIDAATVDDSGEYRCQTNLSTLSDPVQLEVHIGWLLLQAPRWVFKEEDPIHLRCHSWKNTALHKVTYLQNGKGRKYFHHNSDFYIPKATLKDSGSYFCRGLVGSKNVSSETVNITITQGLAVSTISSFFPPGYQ
As to the kind of experiment: SPR (BIACORE), antibody captured, FcgR analyte.

Experiment [12] deals with T12, cynomolgus monkey FcγRIIa3 extracellular domain with C-terminal His-tag (cynomolgus monkey).
T12 construct: also called cyno FcgRIIa3; cynoFcγRIIa3; not shown: His-tag added to the C-terminus
T12 chain: T5 chain with P95T, T121A, A128S, H133P, D135N
Kind of experiment: SPR (BIACORE), antibody captured, FcgR analyte.

In experiment [13] the target is T6, cynomolgus monkey FcγRIIIaS …. Kind of experiment: SPR (BIACORE); KD of SG1 / KD of variant.
Experiment [14] addresses T13, human FcγRIIaH extracellular domain with C-terminal His-tag (human, UniProt P12318 34-217).
T13 construct: also called human FcgRIIaH; FcγRIIa type H; not shown: His-tag added to the C-terminus
T13 sequence: T1 chain with R134H
Kind of experiment: SPR (BIACORE); KD of SG1 / KD of variant.

B1: M103205H795-MY012/M103202L889-SK1 (antibody, human IgG1, kappa, name in EU numbering)
heavy: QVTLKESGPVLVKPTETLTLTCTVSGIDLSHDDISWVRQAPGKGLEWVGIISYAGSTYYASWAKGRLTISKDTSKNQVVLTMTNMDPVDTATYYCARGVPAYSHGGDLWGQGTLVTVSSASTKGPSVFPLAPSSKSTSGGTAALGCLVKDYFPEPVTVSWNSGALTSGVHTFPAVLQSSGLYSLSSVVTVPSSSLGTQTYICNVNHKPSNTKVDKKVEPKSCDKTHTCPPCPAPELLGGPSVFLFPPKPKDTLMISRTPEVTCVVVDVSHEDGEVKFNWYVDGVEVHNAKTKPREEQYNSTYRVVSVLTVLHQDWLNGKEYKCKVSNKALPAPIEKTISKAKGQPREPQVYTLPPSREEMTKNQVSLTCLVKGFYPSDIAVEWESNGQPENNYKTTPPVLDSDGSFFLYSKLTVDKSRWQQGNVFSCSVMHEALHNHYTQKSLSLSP
light: DIVMTQSPATLSLSPGERATLSCTSSQSVYHANWLSWFQQKPGQPPKLLIYWASTLAYGVPSRFSGSGSGTDFTLTISSLQPEDAATYYCAGGYGGGRYAFGQGTKVEIKRTVAAPSVFIFPPSDEQLKSGTASVVCLLNNFYPREAKVQWKVDNALQSGNSQESVTEQDSKDSTYSLSSTLTLSKADYEKHKVYACEVTHQGLSSPVTKSFNRGEC
notes: Substitution introduced into M103205H795-SG1; EU numbering
For the molecule B1, the entries for the “KD fold (SG1 = 1)” value in [1] and in [2] were 4 fold and 5.1 fold, respectively.

B2: M103205H795-MY065/M103202L889-SK1 (antibody, human IgG1, kappa, name in EU numbering)
heavy: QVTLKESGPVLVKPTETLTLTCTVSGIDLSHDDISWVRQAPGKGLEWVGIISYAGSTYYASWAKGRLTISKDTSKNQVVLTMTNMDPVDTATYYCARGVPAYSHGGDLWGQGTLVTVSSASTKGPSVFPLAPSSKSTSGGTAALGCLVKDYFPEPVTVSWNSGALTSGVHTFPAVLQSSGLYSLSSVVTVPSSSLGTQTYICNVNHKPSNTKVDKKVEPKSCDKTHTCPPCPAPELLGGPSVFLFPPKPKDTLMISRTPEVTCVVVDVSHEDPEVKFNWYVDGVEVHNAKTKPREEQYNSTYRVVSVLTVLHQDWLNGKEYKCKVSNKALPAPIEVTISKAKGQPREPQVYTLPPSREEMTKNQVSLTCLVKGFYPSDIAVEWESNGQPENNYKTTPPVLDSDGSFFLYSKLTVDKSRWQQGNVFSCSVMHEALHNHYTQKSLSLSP
light: B1 light
With B2, the “KD fold (SG1 = 1)” value in [3] was determined as 3.27 fold.

B3: MS103240H795-SG1074/M103202L1045-SK1 (antibody, name in EU numbering)
heavy: QVQLVESGGGLVQPGGSLRLSCAVSGIDLSHDDISWVRQAPGKGLEWVSIISYAGSTYYASWAKGRLTISKDTSKNQVVLTMTNMDPVDTATYYCARGVPAYSHGGDLWGQGTLVTVSSASTKGPSVFPLAPSSKSTSGGTAALGCLVKDYFPEPVTVSWNSGALTSGVHTFPAVLQSSGLYSLSSVVTVPSSSLGTQTYICNVNHKPSNTKVDKKVEPKSCDKTHTCPPCPAPELLNGPSVFLFPPKPKDTLMISRTPEVTCVVVDVSDEDPEVKFNWYVDGVEVHNAKTKPREELYNSTYRVVSVLTVLHRDWLNGKEYKCKVSNTALPKPIEKTISKAKGQRREPQVYTLPPSREEMTKNQVSLTCLVKGFYPSDIAVEWESNGQPENNYKTTPPVLDSDGSFFLYSKLTVDKSRWQQGNVFSCSVLHEALHAHTTRKELSLSP
light: B1 light with S25T, A32E
notes: also called MS1032LO19-SG1074
B3: the “fold enhanced affinity compared to SG1” value in [4] turned out to be 10 fold.

B4: M103205H795-MY145/M103202L889-SK1 (antibody, human IgG1, kappa, name in EU numbering)
heavy: QVTLKESGPVLVKPTETLTLTCTVSGIDLSHDDISWVRQAPGKGLEWVGIISYAGSTYYASWAKGRLTISKDTSKNQVVLTMTNMDPVDTATYYCARGVPAYSHGGDLWGQGTLVTVSSASTKGPSVFPLAPSSKSTSGGTAALGCLVKDYFPEPVTVSWNSGALTSGVHTFPAVLQSSGLYSLSSVVTVPSSSLGTQTYICNVNHKPSNTKVDKKVEPKSCDKTHTCPPCPAPELLNGPSVFLFPPKPKDTLMISRTPEVTCVVVDVSEEDPEVKFNWYVDGVEVHNAKTKPREEQYNSTYRVVSVLTVLHQDWLNGKEYKCKVSNKALPAEIEKTISKAKGQPREPQVYTLPPSREEMTKNQVSLTCLVKGFYPSDIAVEWESNGQPENNYKTTPMVLDSDGSFFLYSKLTVDKSRWQQGNVFSCSVMHEALHNHYTQKSLSLSP
light: B1 light
notes: Fc variant of MS1032LO06-SG1; positions in EU numbering
On to B4, for which the Kd (as a rule, the free concentration of one partner at which half of the binding sites on the other are occupied at equilibrium, for simple one-to-one binding) in experiment [5] was found to be 1.9 µM; in [6], 3.6 µM; in experiment [7], 2.4 µM; in experiment [8], 2.5 µM; in experiment [9], 0.98 µM; in [10], 1.2 µM. For the same molecule, the Kd in experiment [11] came out at 9.1 µM; in experiment [12] it was 10 µM.

B5: M103205H795-MY066/M103202L889-SK1 (antibody, human IgG1, kappa, name in EU numbering)
heavy: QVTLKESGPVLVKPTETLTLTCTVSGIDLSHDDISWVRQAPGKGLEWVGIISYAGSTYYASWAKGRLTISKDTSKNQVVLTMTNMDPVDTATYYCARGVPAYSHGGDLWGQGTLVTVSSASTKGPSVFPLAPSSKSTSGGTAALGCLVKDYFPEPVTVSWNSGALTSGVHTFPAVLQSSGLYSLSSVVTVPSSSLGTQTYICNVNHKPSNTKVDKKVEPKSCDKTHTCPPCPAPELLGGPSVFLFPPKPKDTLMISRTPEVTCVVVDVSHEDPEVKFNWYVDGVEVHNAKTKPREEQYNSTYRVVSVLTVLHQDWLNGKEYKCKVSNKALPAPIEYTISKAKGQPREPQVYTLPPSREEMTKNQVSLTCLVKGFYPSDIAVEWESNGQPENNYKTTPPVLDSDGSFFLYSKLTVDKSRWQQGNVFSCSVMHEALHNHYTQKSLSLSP
light: B1 light
Take B5: in experiment [3], the “KD fold (SG1 = 1)” value worked out at 2.25 fold.

B6: M103205H795-MY211/M103202L889-SK1 (antibody, human IgG1, kappa, name in EU numbering)
heavy: B4 heavy with S241V, E270D, K328T, A332K, E333P, M398P
light: B1 light
notes: as for B4
In the case of B6, the Kd in experiment [6] was determined as 3 µM; in experiment [7] it was 0.58 µM; in experiment [8] it was 1.3 µM; in experiment [10] it was 0.82 µM; in [11], 48 µM.

B7: M103205H795-MY117/M103202L889-SK1 (antibody)
heavy: B4 heavy with L236W, S269A, E333P
light: B1 light
notes: Fc variant of MS1032LO06-SG1; EU numbering
B7: the “KD fold (SG1 = 1)” value in [13] came out at 0.36 fold; in [14], 0.5 fold. The Kd turned out to be 1 µM in experiment [6], 1 µM in experiment [8] and 7.9 µM in experiment [11].

B8: MS103240H795-SG1080/M103202L1045-SK1 (antibody, name in EU numbering)
heavy: B3 heavy with L430M, T438Y
light: B1 light with S25T, A32E
notes: Built from the text: MY209 plus Q311R/P343R and N434A/Q438R/S440E; also called MS1032LO19-SG1080
B8: the “fold enhanced affinity compared to SG1” value in experiment [4] is 10 fold.

B9: M103205H795-MY198/M103202L889-SK1 (antibody, human IgG1, kappa, name in EU numbering)
heavy: B4 heavy with S241V, E270D, A332K, E333P
light: B1 light
notes: as for B4
As to B9, the Kd in experiment [6] came to 2.7 µM; in experiment [7], 0.33 µM; in experiment [11] it was 6.9 µM.

B10: M103205H795-MY015/M103202L889-SK1 (antibody, human IgG1, kappa, name in EU numbering)
heavy: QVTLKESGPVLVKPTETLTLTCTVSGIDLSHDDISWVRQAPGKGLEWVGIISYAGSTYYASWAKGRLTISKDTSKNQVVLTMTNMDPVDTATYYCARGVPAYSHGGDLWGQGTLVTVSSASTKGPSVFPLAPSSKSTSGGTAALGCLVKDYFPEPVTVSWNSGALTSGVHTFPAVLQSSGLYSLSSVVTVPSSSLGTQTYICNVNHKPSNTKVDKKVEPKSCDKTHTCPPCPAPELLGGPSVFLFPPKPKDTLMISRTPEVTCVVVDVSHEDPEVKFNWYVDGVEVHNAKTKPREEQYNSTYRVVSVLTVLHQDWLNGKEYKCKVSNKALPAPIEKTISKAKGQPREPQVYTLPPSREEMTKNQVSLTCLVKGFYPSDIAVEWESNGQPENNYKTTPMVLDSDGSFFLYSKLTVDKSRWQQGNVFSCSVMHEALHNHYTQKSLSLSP
light: B1 light
As for B10, the “KD fold (SG1 = 1)” value in experiment [3] was determined as 3.6 fold.

B11: MS103205H795-SG1012/M103202L889-SK1 (antibody, human IgG1, kappa)
heavy: B4 heavy with A332K, E333P, N436A
light: B1 light
notes: also called MS1032LO06-SG1012
With B11, the “fold enhanced affinity compared to SG1” value in experiment [4] worked out at 10 fold.

B12: MS103205H795-SG1016/M103202L889-SK1 (antibody, human IgG1, kappa)
heavy: B4 heavy with Q313R, A332K, E333P, D401K, N436A
light: B1 light
notes: Built from the text: Q311R/D399K introduced into SG1012; also called MS1032LO06-SG1016
Consider B12, for which, in [4], the “fold enhanced affinity compared to SG1” value turned out to be 10 fold.

B13: M103205H795-MY067/M103202L889-SK1 (antibody, human IgG1, kappa, name in EU numbering)
heavy: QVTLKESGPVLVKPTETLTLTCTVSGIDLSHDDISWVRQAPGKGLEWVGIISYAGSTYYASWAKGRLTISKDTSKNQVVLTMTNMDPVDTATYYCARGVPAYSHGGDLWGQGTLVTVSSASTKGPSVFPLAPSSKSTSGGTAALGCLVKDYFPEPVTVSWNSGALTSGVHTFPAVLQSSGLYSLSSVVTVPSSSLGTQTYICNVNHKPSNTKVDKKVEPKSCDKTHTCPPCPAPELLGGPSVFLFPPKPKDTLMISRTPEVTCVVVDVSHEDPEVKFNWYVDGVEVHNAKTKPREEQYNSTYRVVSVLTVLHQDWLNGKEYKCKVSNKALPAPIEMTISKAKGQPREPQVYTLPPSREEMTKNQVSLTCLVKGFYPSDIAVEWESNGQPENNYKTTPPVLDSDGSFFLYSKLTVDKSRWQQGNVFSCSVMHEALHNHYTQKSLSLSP
light: B1 light
In the case of B13, in experiment [3], the “KD fold (SG1 = 1)” value was found to be 3.6 fold.
